For experiment [1], the target named is HLA-B*15:01. Kind of experiment: IEDB peptide-MHC binding, purified MHC/competitive/fluorescence; ≥ and ≤ were set here for values at or beyond the usual limits of such assays. The note with it: source organism: Zaire ebolavirus.
Experiment [2] concerns the target HLA-A*24:02. The description is as above.
The target of experiment [3] is HLA-B*08:01. The description is as above.
A further experiment has as its target HLA-B*83:01. Kind of experiment: IEDB peptide-MHC binding, purified MHC/competitive/fluorescence; filed as Kd, often an IC50 or EC50 that approximates it; ≥ and ≤ were set here for values at or beyond the usual limits of such assays. Particulars: source organism: Shigella flexneri 5 str. 8401.
In another experiment the target is HLA-A*31:01. The experiment is described as above. The note with it: source organism: Shigella flexneri 5 str. 8401.
Another experiment concerns the target HLA-B*15:42. The description is as above. Particulars: source organism: Shigella flexneri 5 str. 8401.
For another experiment, the target named is HLA-B*45:06. The description is as above. Particulars: source organism: Shigella flexneri 5 str. 8401.
For experiment [4], the target named is HLA-A*02:01. The description is as above.
The target in experiment [5] is HLA-A*24:02. Described as above.
In experiment [6] the target is HLA-B*08:01. The description is as above. The note with it: source organism: Shigella flexneri 5 str. 8401.
A further experiment concerns the target HLA-A*32:15. The description is as above. Particulars: source organism: Shigella flexneri 5 str. 8401.
In a further experiment the target is HLA-C*04:01. Kind of experiment: IEDB peptide-MHC binding, purified MHC/direct/fluorescence; filed as Kd, often an IC50 or EC50 that approximates it; ≥ and ≤ were set here for values at or beyond the usual limits of such assays.
The target of experiment [7] is HLA-A*02:01. Put plainly: IEDB peptide-MHC binding, purified MHC/competitive/fluorescence; ≥ and ≤ were set here for values at or beyond the usual limits of such assays. Particulars: source organism: Variola virus.
The target in experiment [8] is HLA-A*01:01. Kind of experiment: IEDB peptide-MHC binding, purified MHC/competitive/fluorescence; filed as Kd, often an IC50 or EC50 that approximates it; ≥ and ≤ were set here for values at or beyond the usual limits of such assays. Particulars: source organism: Orthomarburgvirus marburgense.
In experiment [9] the target is HLA-A*68:02. The description is as above. The note with it: source organism: Orthomarburgvirus marburgense.
Another experiment deals with HLA-B*35:01. The experiment is described as above. The note with it: source organism: Orthomarburgvirus marburgense.
A further experiment addresses HLA-A*02:06. The description is as above. Particulars: source organism: Orthomarburgvirus marburgense.
In a further experiment the target is HLA-B*15:17. The experiment is described as above. Particulars: source organism: Orthomarburgvirus marburgense.
Another experiment addresses HLA-B*39:01. Put plainly: IEDB peptide-MHC binding, purified MHC/direct/fluorescence; filed as Kd, often an IC50 or EC50 that approximates it; ≥ and ≤ were set here for values at or beyond the usual limits of such assays. The note with it: source organism: Marburg virus - Musoke, Kenya, 1980.
Another experiment has as its target HLA-B*40:01. The experiment is described as above. Particulars: source organism: Marburg virus - Musoke, Kenya, 1980.
The target of the next experiment is HLA-C*03:03. Described as above. The note with it: source organism: Orthomarburgvirus marburgense.
A further experiment deals with HLA-B*57:01. The description is as above. Particulars: source organism: Marburg virus - Musoke, Kenya, 1980.
In a further experiment the target is HLA-A*26:01. Described as above. The note with it: source organism: Ravn virus - Ravn, Kenya, 1987.
Experiment [10] concerns the target HLA-B*15:01. Described as above. The note with it: source organism: Marburg virus - Musoke, Kenya, 1980.
A further experiment addresses HLA-B*58:01. Described as above. Particulars: source organism: Marburg virus - Musoke, Kenya, 1980.
The target in the next experiment is HLA-B*38:01. The experiment is described as above. Particulars: source organism: Ravn virus - Ravn, Kenya, 1987.
Another experiment concerns the target HLA-B*18:01. The description is as above. The note with it: source organism: Marburg virus - Musoke, Kenya, 1980.
For experiment [11], the target named is HLA-B*08:01. The experiment is described as above. Particulars: source organism: Ravn virus - Ravn, Kenya, 1987.
Another experiment deals with HLA-B*46:01. The experiment is described as above. Particulars: source organism: Marburg virus - Musoke, Kenya, 1980.
The next experiment concerns the target HLA-B*07:02. The description is as above. The note with it: source organism: Marburg virus - Musoke, Kenya, 1980.
Another experiment concerns the target HLA-B*48:01. The description is as above. Particulars: source organism: Marburg virus - Musoke, Kenya, 1980.
Another experiment has as its target HLA-B*27:05. Described as above. Particulars: source organism: Marburg virus - Musoke, Kenya, 1980.
Experiment [12] has as its target HLA-B*15:01. Put plainly: IEDB peptide-MHC binding, purified MHC/competitive/fluorescence; filed as Kd, often an IC50 or EC50 that approximates it; ≥ and ≤ were set here for values at or beyond the usual limits of such assays. Particulars: source organism: Orthomarburgvirus marburgense.
For a further experiment, the target named is HLA-A*26:02. Described as above. Particulars: source organism: Orthomarburgvirus marburgense.
The next experiment addresses HLA-A*69:01. Kind of experiment: IEDB peptide-MHC binding, purified MHC/direct/fluorescence; filed as Kd, often an IC50 or EC50 that approximates it; ≥ and ≤ were set here for values at or beyond the usual limits of such assays. The note with it: source organism: Marburg virus - Musoke, Kenya, 1980.
Experiment [13] concerns the target HLA-A*01:01. The experiment is described as above. Particulars: source organism: Marburg virus - Musoke, Kenya, 1980.
A further experiment concerns the target HLA-B*15:09. Described as above. Particulars: source organism: Ravn virus - Ravn, Kenya, 1987.
Experiment [14] deals with HLA-A*68:02. The experiment is described as above. The note with it: source organism: Marburg virus - Musoke, Kenya, 1980.
The target of experiment [15] is HLA-A*02:01. The description is as above. The note with it: source organism: Marburg virus - Musoke, Kenya, 1980.
Another experiment addresses HLA-B*08:02. The description is as above. The note with it: source organism: Ravn virus - Ravn, Kenya, 1987.
The mark [16] stands for this setting: source organism: Zaire ebolavirus.
The mark [17] stands for this setting: source organism: Vaccinia virus Copenhagen.
[18] abbreviates: source organism: Shigella flexneri 5 str. 8401.
[19] abbreviates: source organism: Salmonella enterica subsp. enterica serovar Typhi str. CT18.
Setting [20] is: source organism: Rickettsia typhi str. Wilmington.

This is an account of results in the Immune Epitope Database (IEDB).

Usually IC50 stands for the concentration that inhibits the measured activity by half. A higher IC50 goes with a need for much substance. As to DRFKRTSFF, the IC50 in the experiment with HLA-B*15:01 [1] is no less than 181 µM; with HLA-A*24:02 [2] (setting [16]), 1.22 µM; with HLA-B*08:01 [3] (setting [16]) it was 5.43 µM.

Turning to GYFLKIKVT, the half-maximal inhibitory concentration (IC50) with HLA-A*24:02 [2] (setting [17]) is no less than 215 µM; with HLA-B*08:01 [3] (setting [17]), no less than 231 µM.

Broadly, the Kd is a measure of binding affinity in units of concentration. Read a low Kd as higher affinity. For the sequence IIMRRFFYF, the Kd in the experiment with HLA-B*83:01 was no less than 5 µM; in the experiment with HLA-A*31:01, 0.0012 µM; with HLA-B*15:42 it was no less than 5 µM; in the experiment with HLA-B*45:06 it was no less than 5 µM; with HLA-A*02:01 [4] (setting [18]), 0.0329 µM; with HLA-A*24:02 [5] (setting [18]), no more than 0.0001 µM. For the same sequence, the Kd with HLA-B*08:01 [6] was determined as 0.0222 µM; with HLA-A*32:15, 0.0677 µM.

Take IYASRPLDF: the Kd is no more than 0.0001 µM in the experiment with HLA-A*24:02 [5] (setting [19]) and no less than 20 µM with HLA-C*04:01 (setting [19]).

For the sequence IYYWTAWLI, the Kd with HLA-A*24:02 [5] (setting [20]) is 0.0017 µM; with HLA-C*04:01 (setting [20]), no less than 20 µM.

With LSLPRIALV, the values for the IC50 in the experiment with HLA-A*02:01 [7] and with HLA-B*08:01 [3] (source organism: Variola virus) were 0.617 µM and no less than 285 µM, respectively.

With VMPLLVWLF, the Kd in the experiment with HLA-A*24:02 [5] (source organism: Campylobacter jejuni subsp. jejuni NCTC 11168 = ATCC 700819) turned out to be 0.0029 µM.

As for ISDPLTSGL, the Kd with HLA-A*01:01 [8] was 1.03 µM; with HLA-A*68:02 [9], no less than 20 µM; with HLA-A*02:01 [4] (source organism: Orthomarburgvirus marburgense), 0.0681 µM; in the experiment with HLA-B*35:01, no less than 20 µM; with HLA-A*02:06, 0.0206 µM; with HLA-B*15:17 it was 0.0132 µM. For the same sequence, the Kd in the experiment with HLA-B*39:01, with HLA-B*40:01, in the experiment with HLA-C*03:03, with HLA-B*57:01, with HLA-A*26:01 and with HLA-B*15:01 [10] was no less than 20 µM each time. Moreover, the Kd with HLA-B*58:01 was 0.415 µM; with HLA-B*38:01, 5.03 µM; with HLA-B*18:01 it was no less than 20 µM; with HLA-B*08:01 [11], no less than 20 µM; in the experiment with HLA-B*46:01 it was no less than 20 µM; with HLA-B*07:02 it was no less than 20 µM. The Kd with HLA-B*48:01 and with HLA-B*27:05 was no less than 20 µM throughout.

With IHLDKGGQF, the Kd in the experiment with HLA-B*15:01 [12], in the experiment with HLA-B*35:01, with HLA-B*15:17, in the experiment with HLA-A*26:02, with HLA-B*39:01 and with HLA-B*40:01 was no less than 20 µM in each case. Moreover, the Kd with HLA-A*69:01 was no less than 20 µM; with HLA-A*01:01 [13], no less than 20 µM; in the experiment with HLA-B*57:01 it was no less than 20 µM; in the experiment with HLA-B*15:09 it was 7.14 µM; with HLA-A*26:01, no less than 20 µM; in the experiment with HLA-A*68:02 [14], no less than 20 µM. Besides, the Kd with HLA-A*02:01 [15], with HLA-B*58:01, with HLA-B*38:01, with HLA-B*18:01, with HLA-B*08:01 [11] and with HLA-B*46:01 was no less than 20 µM throughout. Besides, the Kd with HLA-B*07:02, with HLA-B*08:02, with HLA-B*48:01 and in the experiment with HLA-B*27:05 was no less than 20 µM each time.
